The results in this text go back to patent publication US20260265410A1 (UNIVERSITY OF FLORIDA RESEARCH FOUNDATION, published 2026).

Residue numbers refer to the chain shown, from its start.

The target in test [1] is T1, human CD105-ECD: amino acid residues Met 1-Gly 586 of human CD105 (Sino bio: Cat: 10149-H02H) (human, UniProt P17813 26-586).
T1 construct: Bought; also called hCD105-ECD-hFc; hCD105-hFc
T1 sequence: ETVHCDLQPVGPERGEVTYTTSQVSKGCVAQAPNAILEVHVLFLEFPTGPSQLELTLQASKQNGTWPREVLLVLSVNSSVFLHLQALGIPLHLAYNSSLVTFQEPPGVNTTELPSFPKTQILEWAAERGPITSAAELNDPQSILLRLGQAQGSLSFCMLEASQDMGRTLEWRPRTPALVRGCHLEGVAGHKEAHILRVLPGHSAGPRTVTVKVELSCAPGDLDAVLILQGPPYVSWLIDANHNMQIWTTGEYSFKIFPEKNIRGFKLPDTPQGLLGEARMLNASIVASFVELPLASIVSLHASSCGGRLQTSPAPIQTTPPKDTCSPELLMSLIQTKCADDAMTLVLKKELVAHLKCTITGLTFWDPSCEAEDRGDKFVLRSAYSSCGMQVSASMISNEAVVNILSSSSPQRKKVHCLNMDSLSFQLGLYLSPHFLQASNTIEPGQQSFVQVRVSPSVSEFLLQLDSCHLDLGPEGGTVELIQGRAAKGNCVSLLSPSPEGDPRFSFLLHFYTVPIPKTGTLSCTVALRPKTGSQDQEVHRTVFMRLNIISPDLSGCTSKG
In words: ELISA, absorbance at 405 nm, one condition per Fab and antigen. Background: In an ELISA, binding on a coated surface is turned into a signal by an enzyme label.

For test [2], the target named is T2, human PTPRG extracellular domain (ECD) (residues 20~736 of human PTPRG) fused to hFc (human, UniProt P23470 20-736).
T2 construct: Produced in-house by transient transfection of Expi293 cells; also called hPTPRG-ECD-hFc; hPTPRG-ECD; not shown: human Fc (hFc)
T2 sequence: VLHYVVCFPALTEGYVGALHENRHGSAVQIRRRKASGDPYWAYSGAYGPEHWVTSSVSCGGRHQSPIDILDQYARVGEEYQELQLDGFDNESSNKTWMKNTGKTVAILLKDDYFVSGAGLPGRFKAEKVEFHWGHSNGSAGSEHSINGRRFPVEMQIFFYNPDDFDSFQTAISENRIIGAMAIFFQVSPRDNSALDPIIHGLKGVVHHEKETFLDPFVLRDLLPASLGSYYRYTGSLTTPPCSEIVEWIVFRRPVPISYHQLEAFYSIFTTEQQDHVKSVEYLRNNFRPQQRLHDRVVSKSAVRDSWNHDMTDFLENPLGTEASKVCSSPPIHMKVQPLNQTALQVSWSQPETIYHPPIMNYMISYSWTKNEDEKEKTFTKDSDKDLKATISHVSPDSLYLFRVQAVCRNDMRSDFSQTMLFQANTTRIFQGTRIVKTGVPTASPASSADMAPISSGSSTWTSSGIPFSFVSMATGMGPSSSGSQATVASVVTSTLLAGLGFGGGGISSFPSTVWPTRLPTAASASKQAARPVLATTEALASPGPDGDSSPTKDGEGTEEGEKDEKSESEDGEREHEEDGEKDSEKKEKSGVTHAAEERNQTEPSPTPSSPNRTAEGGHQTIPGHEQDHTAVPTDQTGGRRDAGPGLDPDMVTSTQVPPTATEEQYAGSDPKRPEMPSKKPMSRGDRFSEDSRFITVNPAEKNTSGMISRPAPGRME
In words: ELISA, one condition per Fab and antigen; y axis 0 to 1.8 without name or unit.

Test [3] deals with T3, mouse PTPRG ECD (amino acid residues 20-733 of mouse PTPRG) fused to hFc (mouse, UniProt Q05909 20-733).
T3 construct: Produced in-house; also called mPTPRG-ECD; Mouse PTPRG-ECD-hFc; not shown: human Fc (hFc)
T3 sequence: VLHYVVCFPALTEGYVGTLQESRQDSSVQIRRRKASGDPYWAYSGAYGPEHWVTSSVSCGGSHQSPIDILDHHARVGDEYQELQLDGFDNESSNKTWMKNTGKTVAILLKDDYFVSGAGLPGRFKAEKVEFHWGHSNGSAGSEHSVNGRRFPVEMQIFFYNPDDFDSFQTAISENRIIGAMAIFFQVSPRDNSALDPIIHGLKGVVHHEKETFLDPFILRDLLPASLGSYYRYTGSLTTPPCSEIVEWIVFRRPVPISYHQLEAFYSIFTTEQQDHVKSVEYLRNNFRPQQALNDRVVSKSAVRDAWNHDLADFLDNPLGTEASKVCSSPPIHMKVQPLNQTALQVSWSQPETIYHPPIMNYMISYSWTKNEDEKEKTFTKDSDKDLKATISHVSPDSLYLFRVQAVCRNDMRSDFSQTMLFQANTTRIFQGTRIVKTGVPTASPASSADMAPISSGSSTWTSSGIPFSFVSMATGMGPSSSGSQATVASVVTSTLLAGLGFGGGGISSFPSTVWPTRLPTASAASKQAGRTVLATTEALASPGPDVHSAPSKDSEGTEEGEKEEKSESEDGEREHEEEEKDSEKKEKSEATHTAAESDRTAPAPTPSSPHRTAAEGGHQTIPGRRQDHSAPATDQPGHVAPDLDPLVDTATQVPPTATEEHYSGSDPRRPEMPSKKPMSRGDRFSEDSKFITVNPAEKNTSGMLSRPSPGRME
Described as above.

The target of test [4] is T4, N-terminal domain (NTD) of human PTPRG (amino acid residues 20~448 of human PTPRG) (human, UniProt P23470 20-448).
T4 construct: also called hPTPRG-NTD; human PTPRG NTD
T4 sequence: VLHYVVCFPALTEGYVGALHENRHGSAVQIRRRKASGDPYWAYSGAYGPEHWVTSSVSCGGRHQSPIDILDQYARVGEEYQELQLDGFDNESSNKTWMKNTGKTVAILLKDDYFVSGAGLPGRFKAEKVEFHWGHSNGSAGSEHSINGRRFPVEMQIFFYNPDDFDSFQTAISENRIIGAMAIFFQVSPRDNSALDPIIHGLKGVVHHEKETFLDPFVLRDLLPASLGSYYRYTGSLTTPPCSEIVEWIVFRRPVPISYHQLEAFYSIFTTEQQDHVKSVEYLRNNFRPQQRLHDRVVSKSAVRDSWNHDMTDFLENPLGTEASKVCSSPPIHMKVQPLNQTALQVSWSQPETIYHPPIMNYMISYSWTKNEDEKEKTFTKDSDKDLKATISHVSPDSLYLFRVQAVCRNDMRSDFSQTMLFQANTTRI
The description is as above.

In test [5] the target is T5, human Nectin-2 on the cell surface (U937 cells) (human, UniProt Q92692 32-538).
T5 construct: Endogenous Nectin-2 of U937 cells; also called PVRL2; CD112
T5 sequence: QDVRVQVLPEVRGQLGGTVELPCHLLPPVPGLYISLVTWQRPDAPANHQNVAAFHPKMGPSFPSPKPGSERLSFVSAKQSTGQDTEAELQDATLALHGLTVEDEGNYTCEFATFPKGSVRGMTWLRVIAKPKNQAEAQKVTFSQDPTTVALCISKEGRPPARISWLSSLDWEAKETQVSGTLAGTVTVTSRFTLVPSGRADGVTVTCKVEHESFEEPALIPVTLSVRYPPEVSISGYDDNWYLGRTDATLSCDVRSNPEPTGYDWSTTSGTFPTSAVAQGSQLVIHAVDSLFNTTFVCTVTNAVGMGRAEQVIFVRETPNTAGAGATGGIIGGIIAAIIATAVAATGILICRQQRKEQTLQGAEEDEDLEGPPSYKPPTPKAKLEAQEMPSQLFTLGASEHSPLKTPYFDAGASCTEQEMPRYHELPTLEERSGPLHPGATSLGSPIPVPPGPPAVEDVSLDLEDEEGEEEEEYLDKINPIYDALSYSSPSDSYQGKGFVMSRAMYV
In words: flow cytometry on whole U937 cells, screen of the 28 clones (Ctrl row = 0); Nectin-2 is named as the antigen on U937 cells only in the later examples. In general terms: A flow cytometer gives signals particle by particle.

Test [6] concerns the target T6, human Nectin-2 extracellular domain (amino acid residues 1-360 of human Nectin-2) fused to hFc (human, UniProt Q92692 32-360).
T6 construct: Bought; also called hNectin-2-ECD-hFc; NECTIN2-ECD-hFc; not shown: human Fc (hFc)
T6 sequence: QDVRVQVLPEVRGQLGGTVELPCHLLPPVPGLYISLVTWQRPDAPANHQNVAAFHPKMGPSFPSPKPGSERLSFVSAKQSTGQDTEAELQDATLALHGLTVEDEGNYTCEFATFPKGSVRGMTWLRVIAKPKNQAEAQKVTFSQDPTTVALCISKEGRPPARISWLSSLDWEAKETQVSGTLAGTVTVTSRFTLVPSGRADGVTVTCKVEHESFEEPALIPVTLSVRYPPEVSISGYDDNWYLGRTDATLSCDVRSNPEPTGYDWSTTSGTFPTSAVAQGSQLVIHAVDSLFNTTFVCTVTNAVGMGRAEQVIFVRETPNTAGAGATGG
In words: SPR, summary table; antigen column hNectin2 ECD. A general note: Surface plasmon resonance follows binding to a sensor surface in real time, without labels.

The target in test [7] is T6, human Nectin-2 extracellular domain …. In words: SPR, Fab on human Nectin-2-ECD-hFc, five concentrations.
For test [8], the target named is T2, human PTPRG extracellular domain (ECD) …. In words: ELISA, absorbance at 405 nm, one condition per Fab and antigen.
Test [9] has as its target T6, human Nectin-2 extracellular domain …. Described as above.
Test [10] concerns the target T5, human Nectin-2 on the cell surface …. In words: competition flow cytometry on U937 cells; competitor of 0.5 µg Alexa 647 labelled Fab_2282.

B1: Fab_484 (Fab, V domains shown)
VH: AQSLEESGGRLVTPGTPLTLTCTASGFSLSSYHMAWVRQAPGKGLEWIGIISSSGSTYYASWAKGRFTISKTSTTVDLKITSPTTEDTATYFCARGFGWGPNLWGPGTLVTVSS
VL: SFVLTQPASVQVNLGQMVSLTCTADTLSRSYASWYQQKPGQAPVLLIYRDTSRPSGVPDRFSGSTSGNTATLTISGAQAGDEADYYCATDDNSGSSYQYVFGGGTQLTVTG
notes: Chimeric rabbit/human Fab; also called N484
B1: the binding result in test [1], in test [2], in [3] and in test [4] was “no binding” each time. For the same molecule, the “flow cytometry binding value (the table prints no name or unit)” value in [5] turned out to be 94.8.

B2: Fab_350 (Fab, V domains shown)
VH: QEQLEESGGRLVTPGTPLTLTCTASGFSLSSYHMSWVRQAPGKGLEWIGLINTGDSAYYASWAKGRFTISRTSTTVDLRITSPTTEDTATYFCARTFGDGFNLWGPGTLVTISS
VL: B1 VL with N13D, M17T, T65S, D90E, N92S, S93G, G94D
notes: Chimeric rabbit/human Fab; also called N350; clone 350
In general, Kd refers to the free concentration of one partner at which half of the binding sites on the other are occupied at equilibrium, for simple one-to-one binding. Low readings indicate tighter binding, high ones weaker binding. A word on the koff: it is the rate constant with which the complex falls apart. A word on the kon: it is a measure of how fast the partners come together. Low values mean slow association, high ones fast association. On to B2, for which, in test [6], binding was characterised by a dissociation constant (Kd) of 67.5 nM, the koff is 0.0077 s⁻¹ and the kon stood at 114000 M⁻¹ s⁻¹. For the same molecule, binding in test [7] was put at a Kd of 67.5 nM. In addition, the “flow cytometry binding value (the table prints no name or unit)” value in test [5] was found to be 89.3.

B3: Fab_2810 (Fab, V domains shown)
VH: QEQLEESGGRLVTPGTPLTLTCTASGFSLTNYYMTWVRQAPGKGLEWIGTIYAGTGSTWYASWVKGRFTISKTSTTVDLKITSPTTEDTATYFCVRGYLGWSSGIENIWGPGTLVTVSS
VL: B1 VL with M17T, T65S, D90S, N92G, S96T, Y97F, Q98H, Y99F
notes: Chimeric rabbit/human Fab; also called E2810; mAb_2810
As to B3, the binding result is “no binding” in test [8], “no binding” in test [9] and “no binding (tested: 5 µg)” in test [10].
